The chains are these.
B1: HDV Ribozyme (parent)
chain: GGCCGGCAUGGUCCCAGCCUCCUCGCUGGCGCCGGCUGGGCAACAUUCCGAGGGGACCGUCCCCUCGGUAAUGGCGAAUGGGACCCA

The text below walks through data of the RNAGym collection of RNA variant scans (doi:10.7554/elife.80360).

Variants of B1 are the subject of the data set. Put plainly: self-cleavage, relative activity (ratio to wild type); higher = more cleavage; co-transcriptional.
Take GGCCGGCAUGGUCCCGGCCUCCUCGCUGGCGCCGGCUGGGCAACAUUCCGAGGCGACCGUCCCCUCGGUAAUGGCGAAUGGGACCCA: the self-cleavage amounted to 1.08.

For GGCCGGCAUGGUCCCGGCCUCCUCGCUGGCGCCGGCUGGGCAACAUUCCGAGGGGACCGUCCCCUCGGUAAUGGCGCAUGGGACCCA, the self-cleavage came to 0.

GGCCGGCAUGGUCCCGGCCUCCUCGCUGGCGUCGGCUGGGCAACAUUCCGAGGGGACCGUCCCCUCGGUAAUGGCGAAUGGGACCCA: the self-cleavage amounted to 0.811.

Take GGCCGGCAUGGUCCCGGCCUCCUCGCUGGCGACGGCUGGGCAACAUUCCGAGGGGACCGUCCCCUCGGUAAUGGCGAAUGGGACCCA: the self-cleavage came to 0.107.

Consider GGCCGGCAUGGUCCCGGCCUCCUCGCUGGCGGCGGCUGGGCAACAUUCCGAGGGGACCGUCCCCUCGGUAAUGGCGAAUGGGACCCA, for which the self-cleavage was determined as 0.145.

As for GGCCGGCAUGGUCCCGGCCUCCUCGCUAGCGCCGGCUGGGCAACAUUCCGAGGGGACCGUCCCCUCGGUAAUGGCGAAUGGGACCCA, the self-cleavage was determined as 0.131.

As for GGCCGGCAUGGUCCCGGCCUCCUCGCUGGCGCCGGCUGGGUAACAUUCCGAGGGGACCGUCCCCUCGGUAAUGGCGAAUGGGACCCA, the self-cleavage worked out at 1.22.

Turning to GGCCGGCAUGGUCCCCGCCUCCUCGCUGGCGCCGGCUGGGCAACAUACCGAGGGGACCGUCCCCUCGGUAAUGGCGAAUGGGACCCA, the self-cleavage was determined as 0.688.

For GGCCGGCAUGGUCCCCGCCUCCUCGCGGGCGCCGGCUGGGCAACAUUCCGAGGGGACCGUCCCCUCGGUAAUGGCGAAUGGGACCCA, the self-cleavage came out at 0.138.

For GGCCGGCAUGGUCCCGGCCUCCUCGCUGGCACCGGCUGGGCAACAUUCCGAGGGGACCGUCCCCUCGGUAAUGGCGAAUGGGACCCA, the self-cleavage turned out to be 0.46.

Consider GGCCGGCAUGGUCCCGGCCUCCUCGCUGGCGCCGGCUGGGCAACAUUCCGAGGGGACCGUCUCCUCGGUAAUGGCGAAUGGGACCCA, for which the self-cleavage was found to be 1.13.

In the case of GGCCGGCAUGGUCCCCGCCUCCUCGCUGGCGCCGGCUGGGCAACAUUCCGAGGGGACCGUCCCCUCGGUAAUGGCGAAAGGGACCCA, the self-cleavage was 1.06.

With GGCCGGCAUGGUCCCCGCCUCCUCGCUGGCGCCGGCUGGGCAACAUUCCGAGGGGACCGUCCCCUCGGUAAUGGCGAACGGGACCCA, the self-cleavage stood at 0.8.

As for GGCCGGCAUGGUCCCCGCCUCCUCGCUGGCGCCGGCUGGGCAACAUUCCGAGGGGACCGUCCCCUCGGUAAAGGCGAAUGGGACCCA, the self-cleavage was 0.437.

In the case of GGCCGGCAUGGUCCCGGCCUCCUCGCUGGCGCCGGCUGGGCAACAUUCCGAGGGGGCCGUCCCCUCGGUAAUGGCGAAUGGGACCCA, the self-cleavage was 0.864.

Regarding GGCCGGCAUGGUCCCGGCCUCCUCGCUGGCGCCGGCUGGGCAACAUUCCGAGGGGACCGUCCCCUCGGUAUUGGCGAAUGGGACCCA, the self-cleavage turned out to be 1.01.

For GGCCGGCAUGGUCCCGGCCUCCUCGCUGGCGCCGGCUGGGCAACAUUCCGAGGGGACCGUCCCCUCGGUACUGGCGAAUGGGACCCA, the self-cleavage came to 0.575.

Take GGCCGGCAUGGUCCCGGCCCCCUCGCUGGCGCCGGCUGGGCAACAUUCCGAGGGGACCGUCCCCUCGGUAAUGGCGAAUGGGACCCA: the self-cleavage was determined as 0.128.

For GGCCGGCAUGGUCCCGGCCUCCUCGCUGGCGCCGGCUGGGCACCAUUCCGAGGGGACCGUCCCCUCGGUAAUGGCGAAUGGGACCCA, the self-cleavage is 0.277.

Consider GGCCGGCAUGGUCCCGGCCUCCUCGCUGGCGCCGGCUGGGCAACAUUCCGAGGGGACCGUCCCCUCGGUAAUUGCGAAUGGGACCCA, for which the self-cleavage worked out at 0.391.

As for GGCCGGCAUGGUCCCGGCCUUCUCGCUGGCGCCGGCUGGGCAACAUUCCGAGGGGACCGUCCCCUCGGUAAUGGCGAAUGGGACCCA, the self-cleavage came out at 0.0615.

As for GGCCGGCAUGGUCCCGGCCUCCUCGCUGGCGCCGGCUGGGCAACAUUCCGAGGGGACCGCCCCCUCGGUAAUGGCGAAUGGGACCCA, the self-cleavage is 1.14.

With GGCCGGCAUGGUCCCCGCCUCCUCGCUGGCGCCGGCUGGGCAACAUUCCGAGGGGACCGCCCCCUCGGUAAUGGCGAAUGGGACCCA, the self-cleavage was determined as 0.369.

As to GGCCGGCAUGGUCCCCGCCUCCUCGCUGGCGCCGGCUGGGCAACAUUCCGAGGGGACCGACCCCUCGGUAAUGGCGAAUGGGACCCA, the self-cleavage is 1.11.

GGCCGGCAUGGUCCCGGCCUCCUCGCAGGCGCCGGCUGGGCAACAUUCCGAGGGGACCGUCCCCUCGGUAAUGGCGAAUGGGACCCA: the self-cleavage came out at 0.703.

As for GGCCGGCAUGGUCCCGGCCUCCUCGCUGGCGCCGGCUGGGCAACAUUCCGAGGGGACCGUCCGCUCGGUAAUGGCGAAUGGGACCCA, the self-cleavage is 0.767.

As for GGCCGGCAUGGUCCCGGCCUCCUCGCUGGCGCCGGCUGGGCAAGAUUCCGAGGGGACCGUCCCCUCGGUAAUGGCGAAUGGGACCCA, the self-cleavage was determined as 0.767.

On to GGCCGGCAUGGUCCCGGCCUCCUCGCUGUCGCCGGCUGGGCAACAUUCCGAGGGGACCGUCCCCUCGGUAAUGGCGAAUGGGACCCA, for which the self-cleavage came to 0.0354.

As for GGCCGGCAUGGUCCCCGCCUCCCCGCUGGCGCCGGCUGGGCAACAUUCCGAGGGGACCGUCCCCUCGGUAAUGGCGAAUGGGACCCA, the self-cleavage amounted to 0.87.

With GGCCGGCAUGGUCCCGGCCUCCUCGCUGGCGCCGGCUGGCCAACAUUCCGAGGGGACCGUCCCCUCGGUAAUGGCGAAUGGGACCCA, the self-cleavage was determined as 0.135.

As for GGCCGGCAUGGUCCCGGCCUCCUCUCUGGCGCCGGCUGGGCAACAUUCCGAGGGGACCGUCCCCUCGGUAAUGGCGAAUGGGACCCA, the self-cleavage was found to be 0.0875.

Turning to GGCCGGCAUGGUCCCGGCCUCCUCACUGGCGCCGGCUGGGCAACAUUCCGAGGGGACCGUCCCCUCGGUAAUGGCGAAUGGGACCCA, the self-cleavage was determined as 0.192.

Turning to GGCCGGCAUGGUCCCGGCCUCCUCGCUGGCGCCGGCUGGGCAACAUUCCGAGGGGACCGUCCCCUCGGUAAUGGCGAAUGCGACCCA, the self-cleavage came to 0.369.

Consider GGCCGGCAUGGUCCCGGCCUCCUCGCUGGCGCCGGCUGGGCAACAUUCCGAGGGGACCGUCCCCUCGGUAAUGGCGAAUGUGACCCA, for which the self-cleavage was found to be 0.489.

On to GGCCGGCAUGGUCCCGGCCUCCUCGCUGGCGCCGGCUGGGCAACAUUCCGAGGGGACCGUCCCCUCGGUCAUGGCGAAUGGGACCCA, for which the self-cleavage amounted to 1.04.

For the variant GGCCGGCAUGGUCCCGGCCUCCUCGCUGGCGCCGGCUGGGCAACAUUCCGAGGGGACCGUCCCCUCGGUGAUGGCGAAUGGGACCCA, the self-cleavage was determined as 1.33.

For the variant GGCCGGCAUGGUCCCGGCCUCCUCGCUGGCGCCGGCUGGGCAACAUUCCGAGGGGAACGUCCCCUCGGUAAUGGCGAAUGGGACCCA, the self-cleavage came to 1.18.

As for GGCCGGCAUGGUCCCGGCCUCAUCGCUGGCGCCGGCUGGGCAACAUUCCGAGGGGACCGUCCCCUCGGUAAUGGCGAAUGGGACCCA, the self-cleavage stood at 0.199.

On to GGCCGGCAUGGUCCCGGCCUCGUCGCUGGCGCCGGCUGGGCAACAUUCCGAGGGGACCGUCCCCUCGGUAAUGGCGAAUGGGACCCA, for which the self-cleavage was 0.185.

For the variant GGCCGGCAUGGUCCCGGCCUCCUCGCUGGCGCUGGCUGGGCAACAUUCCGAGGGGACCGUCCCCUCGGUAAUGGCGAAUGGGACCCA, the self-cleavage was 0.802.

In the case of GGCCGGCAUGGUCCCGACCUCCUCGCUGGCGCCGGCUGGGCAACAUUCCGAGGGGACCGUCCCCUCGGUAAUGGCGAAUGGGACCCA, the self-cleavage turned out to be 0.617.

On to GGCCGGCAUGGUCCCGGCCUCCUCGCUGGCGCCGGCUGGGCAACAUUCCGAGGGGACCGUCCCCUUGGUAAUGGCGAAUGGGACCCA, for which the self-cleavage amounted to 0.988.

As to GGCCGGCAUGGUCCCGGCCUCCUCGCUGGUGCCGGCUGGGCAACAUUCCGAGGGGACCGUCCCCUCGGUAAUGGCGAAUGGGACCCA, the self-cleavage came to 0.665.

In the case of GGCCGGCAUGGUCCCGGCCUCCUCGCUGGCGCCGGCUGGGCAACAUUCCGAGGGGACCGUCCCCUCAGUAAUGGCGAAUGGGACCCA, the self-cleavage is 0.886.

With GGCCGGCAUGGUCCCGGCCUCCUCGCUGGCGCCGGCUGGGCAACAUUCCGAGGGGACCGUCCCCUCUGUAAUGGCGAAUGGGACCCA, the self-cleavage stood at 0.831.

As for GGCCGGCAUGGUCCCGGCCUCCUCGCUGGCGCCGGCUGGGCAACAUUCCGAGGGGACCGUCCCUUCGGUAAUGGCGAAUGGGACCCA, the self-cleavage turned out to be 0.942.

As to GGCCGGCAUGGUCCCGGCCUCCUCGCUGGCGCCGGCUGGGCAACAUUCCGAGGGGACCGUCCCCUCGGUAAUGGCGAAUGGGACCGA, the self-cleavage worked out at 1.2.

Regarding GGCCGGCAUGGUCCCGGCCUCCUCGCUGGCGCCGGCUGGGCAACAUUCCGAGGGGACCGUCCCCUCGGUAAUGGCGAAUGGGACCAA, the self-cleavage turned out to be 0.76.

As for GGCCGGCAUGGUCCCGGCCUCCUCGCUGGCGCCGGCUGGGCAACAUUCCGAGGGGACCGUCCCCUCGGUAAUGGCGAAUGGGACCUA, the self-cleavage came out at 1.2.

For the variant GGCCGGCAUGGUCCCGGCCUCCUCGCUGGCGCCGGCUGGGCAACAUUCCGAGGGGACCGUCCCCUCGGUAAUGGCUAAUGGGACCCA, the self-cleavage amounted to 1.29.

Consider GGCCGGCAUGGUCCCGGCCUCCUCGCUGGCGCCGGCUGGGCAACAUCCCGAGGGGACCGUCCCCUCGGUAAUGGCGAAUGGGACCCA, for which the self-cleavage amounted to 0.962.

With GGCCGGCAUGGUCCCGGCCUCCUCGCUGGCGCCGGCUGGGCAACAUACCGAGGGGACCGUCCCCUCGGUAAUGGCGAAUGGGACCCA, the self-cleavage was determined as 1.16.

As to GGCCGGCAUGGUCCCCGCCUCCUCGCUGGCGCCGGCAGGGCAACAUUCCGAGGGGACCGUCCCCUCGGUAAUGGCGAAUGGGACCCA, the self-cleavage amounted to 0.

In the case of GGCCGGCAUGGUCCCCGCCUCCUCGCUGGCGCCGGCGGGGCAACAUUCCGAGGGGACCGUCCCCUCGGUAAUGGCGAAUGGGACCCA, the self-cleavage amounted to 0.0923.

With GGCCGGCAUGGUCCCCGCCUCCUCGCUGGCGCCGGCCGGGCAACAUUCCGAGGGGACCGUCCCCUCGGUAAUGGCGAAUGGGACCCA, the self-cleavage is 0.831.

On to GGCCGGCAUGGUCCCGGCCUCCUCGCUGGCGCCGGCUGGGCAACAUUCCGAGGGGACCGUCCCCUCGGUAAUGGAGAAUGGGACCCA, for which the self-cleavage stood at 0.122.

With GGCCGGCAUGGUCCCGGCCUCCUCGCUGGCGCCGGCUGGGCAACAUUCCGAGGGGACCGUCCCCUCGGUAAUGGCGAAUGGGACCCG, the self-cleavage was found to be 0.892.

As to GGCCGGCAUGGUCCCGGCCUCCUCGCUGGCGCCGGCUGGGCAACAUUCCGAGGGGACCGUCCCCUCGGUAAUGGCGAAUGGGACCCU, the self-cleavage is 0.939.

On to GGCCGGCAUGGUCCCGGCCUCCUCGCUGGCGCCGGCUGGGCAACAUUCCGAGGGGACCGUCCCCUCGGUAAUGGCGAAUGGGAACCA, for which the self-cleavage stood at 0.7.

As to GGCCGGCAUGGUCCCGGCCUCCUCGCUGGCGCCGGCUGGGCAACAUUCCGAGGGGACCGUCCCCUCGGUAAUGGCGAAUGGGAUCCA, the self-cleavage was 0.525.

As for GGCCGGCAUGGUCCCGGCCUCCUCGCUGGCGCCGGCUGUGCAACAUUCCGAGGGGACCGUCCCCUCGGUAAUGGCGAAUGGGACCCA, the self-cleavage was found to be 0.582.

As for GGCCGGCAUGGUCCCGGCCUCCUCGCUGGCGCCGGCUGGGCAACAAUCCGAGGGGACCGUCCCCUCGGUAAUGGCGAAUGGGACCCA, the self-cleavage was determined as 0.646.

Turning to GGCCGGCAUGGUCCCGGCCUCCUCGCUGGCGCCGACUGGGCAACAUUCCGAGGGGACCGUCCCCUCGGUAAUGGCGAAUGGGACCCA, the self-cleavage was 0.696.

As for GGCCGGCAUGGUCCCGGCCUCCUCGCUGGCGCCGGCUGGGCAACCUUCCGAGGGGACCGUCCCCUCGGUAAUGGCGAAUGGGACCCA, the self-cleavage came to 0.506.
